Assay results reported in the RNAGym collection of RNA variant scans (doi:10.1073/pnas.2313332121).
Variants at the floor of the assay were thinned out.

B1: TPR 5TU (parent)
chain: GGAUCUUCUCGAUCUAACAAAAAAGACAAAUCUGCCACAAAGCUUGAGAGCAUCUUCGGAUGCAGAGGCGGCAGCCUUCGGUGGCGCGAUAGCGCCAACGUUCUCAACUAUGACACGCAAAACGCGUGCUCCGUUGAAUGGAGUUUAUCAUG

Variants of: B1
Experiment: polymerase ribozyme fitness, log enrichment relative to wild type (log ratio); higher = more active; in vitro selection for triplet polymerase activity
In short: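 Fitness measures genotype enrichment against wild-type enrichment on a logarithmic scale, with inverse-variance-weighted averaging of replicates. The logarithm is base 2, and genotypes were kept only with ≥10 input reads and ≥1 read per output in Illumina sequencing. The sequenced libraries came from one triplicate in vitro selection round, including frozen incubation at −7 °C, of PCR-built, transcribed mutant libraries of each subunit of a heterodimeric triplet polymerase ribozyme.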

| Variant | polymerase ribozyme fitness (log ratio) |
| --- | --- |
| A20U C54A U56A G84C G86C C96U G117C A122U U144A A150G | ≤ -4.2 |
| A21U C36A G50U U55A C57G G62A G68U C85G C103A G128A | ≤ -4.2 |
| A19U U44A U53A A73U C85U G136A | ≤ -4.2 |
| A20U A21G A30G C99A | -4.05 |
| A21G G70A | -3.35 |
| A20C A41U G68C G83A G100U A115G C116U C123G | ≤ -4.2 |
| A20U G59A C93A | -4.07 |
| A21C A24U G46U C57U C93U | -1.65 |
| A21C C96U | 0.207 |
| A20C A47U U101A A122U | -0.358 |
| A21G A22U G67A G86C C96U G117A | ≤ -4.2 |
| A21U G92A | -2.72 |
| A21G C57A G81C A97G U101C U135C | -1.99 |
| A20U A49U C93G C103U | ≤ -4.2 |
| A21C U61G C85U | 0.133 |
| A21C A29U C43A U55A G83A A107C | ≤ -4.2 |
| A20G U45C U56G C57U C75A C87G G136C | ≤ -4.2 |
| A21U C79G C96U C105U U134A | ≤ -4.2 |
| A20C G48U G59A A119U U135A U146C | -2.07 |
| A21U G84A G141A | 0.99 |
| A20G U33A U55G C87A G140C | ≤ -4.2 |
| A20U C85G | -3.35 |
| A20C C57U G59C G62C G124A | -0.9 |
| A20G G117A | -0.0564 |

| Variant | polymerase ribozyme fitness (log ratio) |
| --- | --- |
| A21U G34A C93U C99G C149G | ≤ -4.2 |
| A21C C32G A37U A49G C57U C75G G84A A107C A147U | ≤ -4.2 |
| A20U A41U C63A A106G U145A | -2.83 |
| A21C G84U U90C C116A A137C A138G | ≤ -4.2 |
| A21U U44A C93G G94C | ≤ -4.2 |
| A21U G84A A89G | -1.44 |
| A21U A37C A49G A52U A91C | ≤ -4.2 |
| A21U C85U | -0.171 |
| A20U A28U A64C C79U C93A C114U | ≤ -4.2 |
| A20C A52G C79A G133C U146G | ≤ -4.2 |
| A19U U53A C85A | -3.78 |
| A20U A21U A37C C96A A121G | -1.8 |
| A21G A49G C63G C96U A98U C125G | -0.663 |
| A20G A22C G25C C57A G92A C99U C108A | ≤ -4.2 |
| A21U C95U C99U | -0.768 |
| A21U G34A G83C | -2.46 |
| A20U G67U C116G | ≤ -4.2 |
| A19U G94C U145G | -0.324 |
| A20U G42U U90G C96A G117A A137U | ≤ -4.2 |
| A21U G84U | -1.29 |
| A20G A37U U111G | ≤ -4.2 |
| A20G A30U C63A C87U U146C | ≤ -4.2 |
| A20G A21U G59C C69A A98G U109A | ≤ -4.2 |
| A20U A29G G46C G50C A66U G83A | ≤ -4.2 |

| Variant | polymerase ribozyme fitness (log ratio) |
| --- | --- |
| A21G G42A G50C C93G G136U | ≤ -4.2 |
| A20C U56A | -0.524 |
| A20C A52G A142G | -2.02 |
| A21U C63U G84A | -0.545 |
| A20U A23C A47G U77G G84C A97U C118U | ≤ -4.2 |
| A20C A22C A39G G71A C85A G94C | ≤ -4.2 |
| A21G C54A G83U C87A C96U A122C | ≤ -4.2 |
| A21U A28C U31G A47G C85U C116G C129A G133A | ≤ -4.2 |
| A20G G136A | 0.27 |
| A20U C35U C95A A97G C99A C105U A138G | ≤ -4.2 |
| A20U A30G A41G U45A U53G C96G | ≤ -4.2 |
| A21U A26G G86U C118U | ≤ -4.2 |
| A21C C75G C96G C131G | -4.13 |
| A21C C51U A106G | -0.144 |
| A21G A24U U53A G94A | -0.529 |
| A21U A29U A66U C76A C93G | ≤ -4.2 |
| A20G A41G C54U U56A C93G A120G U139G | -2.99 |
| A21U C85U G124A G126A G136A | -3.04 |
| A21U C75G G86A U101C | -4.03 |
| A21U U31A C85A | -0.251 |
| A19U U33A G34A C79A C118U C125A C132U G133A A142C U148G | ≤ -4.2 |
| A21G C27G U33C G62U G81U C96U C105A A113U A122U | ≤ -4.2 |
| A21C G59A A113G | -1.92 |
| A20G C54G U82A A98U U144A | -4.1 |

| Variant | polymerase ribozyme fitness (log ratio) |
| --- | --- |
| A20U C32A C99A A115G A120U | -4.05 |
| A20U G70C C93G | ≤ -4.2 |
| A20G C85A | -2.13 |
| A20G C85G | -2.92 |
| A21U C54U C63U G68A A73G C93G C108G U148G | ≤ -4.2 |
| A21C A91G C96U | -3.34 |
| A19U U55A A60G G94U G143U | -3.55 |
| A21U C76G | ≤ -4.2 |
| A21G G88A U90C U127C U135G C149U | ≤ -4.2 |
| A20U A40C G94A A115U A119C | -3.89 |
| A20G G48A A119C A121U G136U | -3.51 |
| A21U A60C C87A A98G G100C | ≤ -4.2 |
| A21C U45A A64G G92A | -3.46 |
| A20U A22U C57A C96G C125U | -3.05 |
| A20C U55G G67U C72A C85U | ≤ -4.2 |
| A20C C54U U78A | ≤ -4.2 |
| A20C U31C A41C U55A C79A C99A C125G | ≤ -4.2 |
| A21U A41G | 1.06 |
| A20C A41C U55C C93G C99U U102G | ≤ -4.2 |
| A20C G94U G152C | -2.76 |
| A20U C87G A91U | ≤ -4.2 |
| A21G A23G G128C | ≤ -4.2 |
| A21C C85G C103U G136A | -1.18 |
| A21U G62A | 0.138 |

| Variant | polymerase ribozyme fitness (log ratio) |
| --- | --- |
| A21U C27G C93U A138C A147C | ≤ -4.2 |
| A20G A47G | -0.368 |
| A21C A26U G140C U146A | ≤ -4.2 |
| A21C C43A G50C G74C C76A C87A A91G A119G | ≤ -4.2 |
| A20U A29U G71U G84A | ≤ -4.2 |
| A20C A21U U55A G59C C85A G126U | -0.602 |
| A21G C36U C57A | -0.735 |
| A21U C93A | -1.74 |
| A21U C57A A89U | -0.571 |
| A21U C51U A106U | -2.08 |
| A20U A26C G84U C103G A106C C108G | ≤ -4.2 |
| A21U C85A A97U | -2.01 |
| A20C A115U | -2.36 |
| A21U A60G | 0.987 |
| A21C C36A C95G | -3.86 |
| A21U A24U A52G G71U U90C C123U G126U U144A A147C U151A | ≤ -4.2 |
| A21U A26C C69A G84U | -3.67 |
| A21G A91G A115U C116A | -3.91 |
| A21C G25C A52C A89U C118A A119C | -3.52 |
| A20G A21C G94A U146G | -0.812 |
| A21C C87U | 0.0419 |
| A21C A26C C27U U44G A52G G58C U90A G92A G100U | ≤ -4.2 |
| A19U G83U | -0.798 |
| A20C C85U | -1.04 |

| Variant | polymerase ribozyme fitness (log ratio) |
| --- | --- |
| A20G A40C A49C G50A G65C G68A C87U G124U | ≤ -4.2 |
| A20G C27G G42C G58C G68A A121C C125U G140A | ≤ -4.2 |
| A21G A52U C85G A119G C125U A137U | ≤ -4.2 |
| A21U C87U C96U C131G | ≤ -4.2 |
| A20C G50A C76G G80C A91U A98G | ≤ -4.2 |
| A20G A52C | -1.28 |
| A21U A30U C38G C85G G112A G124A | ≤ -4.2 |
| A20U A150G | -1.81 |
| A21C C32G G50A C93U A119U | ≤ -4.2 |
| A20U A26G C27A C36U C93U A147U | ≤ -4.2 |
| A21G G42A A49C A66U U82C C87U U135G U145A U148A | ≤ -4.2 |
| A21U A29C C95A U101G G126C U135G G143U | ≤ -4.2 |
| A21U A64C U145G | ≤ -4.2 |
| A20U G48C C57G G128A | ≤ -4.2 |
| A21C C72G G124C | ≤ -4.2 |
| A20G U55G C116U A121C | -0.705 |
| A20C A21G G48A C54A A113C A147C | ≤ -4.2 |
| A21U U55A | -0.879 |
| A20U A21G C51U G133C | ≤ -4.2 |
| A20C C75A C96U C118G G141A | ≤ -4.2 |
| A21G C57A G74A C76G C87U G124U | ≤ -4.2 |
| A20U U45A G124A | -3.98 |
| A20C A120G | -0.986 |
| A21U C75A A122U | -3.97 |

| Variant | polymerase ribozyme fitness (log ratio) |
| --- | --- |
| A21U A39C U90C C95U A97U | ≤ -4.2 |
| A20C U61G | -1.36 |
| A20C A28C A37U G42U G71A C85U C99G A106G C131G | ≤ -4.2 |
| A21G G83C U90C U146A A150C | ≤ -4.2 |
| A21U C32A G58C | ≤ -4.2 |
| A20U G50C G58U C79G G84U U90G A107G C108G | ≤ -4.2 |
| A20U U33G G42U C63G G71A A113G | ≤ -4.2 |
| A20C A97G | -0.83 |
| A21C U56A C93A A121C U146G C149U | -2.29 |
| A20C C27U C87U G92A U101A | -1.49 |
| A20G G83A C129G | -3.83 |
| A21C C43A | ≤ -4.2 |
| A21C A49U C54U C85G G117A G124U | -3.06 |
| A21C U56G G59A C72U A122U | -0.846 |
| A21U A142U | -0.552 |
| A21U A49G A98G | -0.555 |
| A20G A22C | -0.665 |
| A20G G46U G92U | -0.107 |
| A20U A41G A49U A52C G86C C96G | ≤ -4.2 |
| A20G C51U G58A C85U A106U | -2.76 |
| A20U U55A | -2.07 |
| A20U C54G | -2.64 |
| A20C C103G | -1.28 |
